Results published in paper PMC10518009.

Tests used:
[1] = molecular target: SARS-CoV-2 spike (RBD)-Fc (SARS-CoV-2) (UniProt P0DTC2); assay: ELISA; BPS Bioscience #79936 kit: plate coated with spike (RBD)-Fc, serial concentrations of test compound (200-12.5) added, kit completed as in its manual, luminescence
ACE2-His (human) = ACE2-His (human) (UniProt Q9BYF1); assay: ELISA; BPS Bioscience #79936 kit: ACE2-His held on a 96-well nickel-coated plate, test compound (25-200 µg/mL) incubated 60 min at room temperature, then spike (RBD)-Fc added for 60 min, anti-mouse Fc-HRP, chemiluminescence
ACE2-His (human), sequence (Q9BYF1 18-805): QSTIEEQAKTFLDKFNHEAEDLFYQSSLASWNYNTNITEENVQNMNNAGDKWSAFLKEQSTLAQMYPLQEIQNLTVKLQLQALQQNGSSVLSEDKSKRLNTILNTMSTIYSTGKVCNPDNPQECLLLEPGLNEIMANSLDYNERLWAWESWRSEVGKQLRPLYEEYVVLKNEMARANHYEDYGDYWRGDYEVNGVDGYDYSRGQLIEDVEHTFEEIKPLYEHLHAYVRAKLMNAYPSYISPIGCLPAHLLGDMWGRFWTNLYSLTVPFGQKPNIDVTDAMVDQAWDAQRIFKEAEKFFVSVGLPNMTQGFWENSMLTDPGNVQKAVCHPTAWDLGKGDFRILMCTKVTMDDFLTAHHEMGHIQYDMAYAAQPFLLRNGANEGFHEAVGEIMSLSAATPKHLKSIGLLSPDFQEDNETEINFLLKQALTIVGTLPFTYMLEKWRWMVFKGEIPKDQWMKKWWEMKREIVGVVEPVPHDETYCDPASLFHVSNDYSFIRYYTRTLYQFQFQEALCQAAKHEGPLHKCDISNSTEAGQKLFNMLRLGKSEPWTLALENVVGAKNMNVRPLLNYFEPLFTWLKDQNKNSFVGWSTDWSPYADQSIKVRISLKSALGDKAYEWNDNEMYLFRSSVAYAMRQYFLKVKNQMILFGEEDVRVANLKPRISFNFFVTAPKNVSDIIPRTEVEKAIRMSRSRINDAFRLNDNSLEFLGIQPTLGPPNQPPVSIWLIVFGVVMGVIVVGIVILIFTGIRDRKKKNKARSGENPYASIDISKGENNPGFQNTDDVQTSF

Substance | maximum percent inhibition (RBD neutralization) [1] | maximum percent inhibition of ACE2/spike at 200 mg concentration (ACE2-His (human))
bovine lactoferrin (natural protein) | 94% | –
bovine lactoferrin (natural protein; other documents disagree on this pair) | – | 33%
